Source: patent US11052053B2, “Nanoparticle comprising a bio-resorbable polyester, a hydrophilic polymer and an acylated human lactoferrin-derived peptide” (Evonik Operations GmbH, priority 2018, dated 2021)
Bridge positions count the residues as written; N and C are the ends. * marks the point of attachment. Palmitoyl = CCCCCCCCCCCCCCCC(=O)*

Experiment: hLFF-peptide precipitation test (freeze-thawing)
Type: physicochemical
Conditions: 2 mM peptide in 50 mM Hepes buffer pH 8, freezing at −18° C.
Protocol: hLFF-peptides tested for precipitation by one freeze-thawing cycle (freezing at −18° C.) with hLFF peptides dissolved in 50 mM Hepes buffer pH 8 at a concentration of 2 mM.
Solutions of acylated and biacylated human lactoferrin peptides were tested for precipitation in several freeze-thaw cycles.

Substance | precipitation of peptide solution after freeze-thawing
Acetyl-NH-KCFQWQRNMRKVRGPPVSCIKR-CONH2 (Ac-KCFQWQRNMRKVRGPPVSCIKR-NH2; disulfide 2-19; listed as Homo sapiens) [C2-hLFF] | do not precipitate
palmitoyl-NH-KCFQWQRNMRKVRGPPVSCIKR-CONH2 (Palmitoyl-KCFQWQRNMRKVRGPPVSCIKR-NH2; disulfide 2-19) [C16-hLFF] | do not precipitate
